Changes are numbered by the printed parent chain. In names and notes the source's numbering stands.
How the values were obtained:
Human OSM [1] = target: T1, Human OSM (human, UniProt P13725 26-221); assay: SPR (ProteOn XPR36 or Biacore T100), captured supernatant, OSM as analyte [continued]
T1 construct: Recombinant human OSM; also called hOSM; human Oncostatin M
T1 sequence: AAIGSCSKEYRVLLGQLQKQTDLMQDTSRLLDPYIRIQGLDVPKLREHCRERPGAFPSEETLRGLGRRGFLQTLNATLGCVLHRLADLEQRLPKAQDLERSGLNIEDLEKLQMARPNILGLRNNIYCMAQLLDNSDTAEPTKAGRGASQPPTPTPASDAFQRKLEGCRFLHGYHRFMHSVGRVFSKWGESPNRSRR
Procedure: (§1) The initial kinetic analyses for the CDRH3 screen were carried out on the ProteOn XPR36 (Biorad Laboratories) and certain supernatants were selected for more accurate kinetic analysis on the BiaCore T100.
(§2) For the ProteOn analysis, anti-human IgG (GE Healthcare/Biacore BR-1008-39) was coupled to a GLM chip (Biorad Laboratories 176-5012) by primary amine coupling. The CDRH3 variants were captured directly on to this surface and recombinant human OSM was passed over the captured antibody surface at 256, 64, 16, 4 and 1 nM, with a buffer injection alone (i.e. 0 nM) used to double reference the binding curves. Following the OSM binding event, the capture surfaces were regenerated: with 3M MgCl₂ the regeneration removed the previously captured antibody ready for another cycle of capture and binding analysis. The data was then fitted to the 1:1 model (with mass transport) inherent to the ProteOn analysis software. The run was carried out using HBS-EP (Biacore/GE-Healthcare BR-1006-69) and the analysis temperature was 25° C.
(§3) A similar method was used for analysis of constructs using the Biacore T100, anti-human IgG (GE Healthcare/Biacore BR-1008-39) was coupled to a CM5 chip (GE Healthcare/Biacore BR-1006-68) by primary amine coupling, antibodies were captured on this surface and recombinant human OSM was passed over the captured antibody surface at 256, 64, 16, 4 and 1 nM, with a buffer injection alone (i.e. 0 nM) used to double reference the binding curves. Regeneration was by using pulses of 3M 3M MgCl₂ or 100 mM phosphoric acid or using both reagents. The data was fitted to the 1:1 model inherent to the Biacore T100 analysis software. The run was carried out using HBS-EP (Biacore/GE-Healthcare BR-1006-69) and the analysis temperature was 25° C.

Human OSM [2] = target: T1, Human OSM; assay: SPR (ProteOn XPR36 or Biacore T100), captured supernatant, OSM as analyte; grey cell: 3x decrease in binding
Procedure: as §1, §2, §3

Human OSM [3] = target: T1, Human OSM; assay: SPR (ProteOn XPR36 or Biacore T100), captured supernatant, OSM as analyte
Procedure: as §1, §2, §3

Human OSM [4] = target: T1, Human OSM; assay: BIAcore kinetics, transfection supernatant
Cynomolgus OSM = target: T2, Cynomolgus OSM (cynomolgus, UniProt A0A2K5VPC6 26-221); assay: BIAcore kinetics, transfection supernatant
T2 construct: also called Cyno OSM; cynomolgus macaque OSM
T2 sequence: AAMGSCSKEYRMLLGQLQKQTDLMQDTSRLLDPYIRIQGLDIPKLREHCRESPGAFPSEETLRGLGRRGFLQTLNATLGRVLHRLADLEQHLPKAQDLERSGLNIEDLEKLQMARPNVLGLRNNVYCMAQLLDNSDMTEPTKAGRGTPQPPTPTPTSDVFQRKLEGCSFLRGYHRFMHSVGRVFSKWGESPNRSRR

B1: Pos 95 Thr (antibody, V domains shown)
VH: EVQLVESGGGLVQPGGSLRLSCAASGFTFSSYAMSWVRQAPGKGLEWVATISDGGSFTYYLDNVRGRFTISRDNAKNSLYLQMNSLRAEDTAVYYCARTVGHTTFWYFDVWGRGTLVTVSS
VL: DIVMTQSPDSLAVSLGERATINCRASKSVSAAGYNFMHWYQQKPGQPPKVLIYYASNLESGVPDRFSGSGSGTDFTLTISSLQAEDVAVYYCLHSREFPFTFGGGTKVEIKR
notes: also called CDRH3 D95>T
- Kd (Human OSM [1]): 0.632 nM

B2: Pos 96 Thr (antibody, V domains shown)
VH: B1 VH with T99D, V100T
VL: B1 VL
notes: also called CDRH3 V96>T
- Kd (Human OSM [1]): 0.497 nM

B3: Pos 96 Trp (antibody, V domains shown)
VH: B1 VH with T99D, V100W
VL: B1 VL
notes: also called CDRH3 V96>W
- Kd (Human OSM [1]): 0.979 nM

B4: Pos 98 Trp (antibody, V domains shown)
VH: B1 VH with T99D, H102W
VL: B1 VL
notes: also called CDRH3 H98>W
- Kd (Human OSM [1]): 0.317 nM

B5: Pos 100 Ala (antibody, V domains shown)
VH: B1 VH with T99D, T104A
VL: B1 VL
notes: also called CDRH3 T100>A
- Kd (Human OSM [2]): 8.55 nM

B6: Pos 100A Gln (antibody, V domains shown)
VH: B1 VH with T99D, F105Q
VL: B1 VL
notes: also called CDRH3 F100A>Q
- Kd (Human OSM [2]): 14.6 nM

B7: Pos 100C Glu (antibody, V domains shown)
VH: B1 VH with T99D, Y107E
VL: B1 VL
notes: also called CDRH3 Y100C>E
- Kd (Human OSM [3]): 0.482 nM

B8: Pos 100C Gly (antibody, V domains shown)
VH: B1 VH with T99D, Y107G
VL: B1 VL
notes: also called CDRH3 Y100C>G
- Kd (Human OSM [3]): 0.388 nM

B9: Pos 100C Phe (antibody, V domains shown)
VH: B1 VH with T99D, Y107F
VL: B1 VL
notes: also called CDRH3 Y100C>F
- Kd (Human OSM [3]): 0.365 nM

B10: Pos 100C Trp (antibody, V domains shown)
VH: B1 VH with T99D, Y107W
VL: B1 VL
notes: also called CDRH3 Y100C>W
- Kd (Human OSM [1]): 0.687 nM

B11: Pos 100C Val (antibody, V domains shown)
VH: B1 VH with T99D, Y107V
VL: B1 VL
notes: also called CDRH3 Y100C>V
- Kd (Human OSM [1]): 0.56 nM

B12: Pos 100D Ala (antibody, V domains shown)
VH: B1 VH with T99D, F108A
VL: B1 VL
notes: also called CDRH3 F100D>A
- Kd (Human OSM [3]): 0.869 nM

B13: Pos 100D Asp (antibody, V domains shown)
VH: B1 VH with T99D, F108D
VL: B1 VL
notes: also called CDRH3 F100D>D
- Kd (Human OSM [3]): 0.672 nM

B14: Pos 100D Glu (antibody, V domains shown)
VH: B1 VH with T99D, F108E
VL: B1 VL
notes: also called CDRH3 F100D>E
- Kd (Human OSM [3]): 0.688 nM

B15: Pos 100D Gly (antibody, V domains shown)
VH: B1 VH with T99D, F108G
VL: B1 VL
notes: also called CDRH3 F100D>G
- Kd (Human OSM [3]): 0.661 nM

B16: Pos 100D Trp (antibody, V domains shown)
VH: B1 VH with T99D, F108W
VL: B1 VL
notes: also called CDRH3 F100D>W
- Kd (Human OSM [1]): 0.711 nM

B17: Pos 100D Val (antibody, V domains shown)
VH: B1 VH with T99D, F108V
VL: B1 VL
notes: also called CDRH3 F100D>V
- Kd (Human OSM [1]): 0.675 nM

B18: Pos 101 Glu (antibody, V domains shown)
VH: B1 VH with T99D, D109E
VL: B1 VL
notes: also called CDRH3 D101>E
- Kd (Human OSM [3]): 0.426 nM

B19: Pos 101 Gly (antibody, V domains shown)
VH: B1 VH with T99D, D109G
VL: B1 VL
notes: also called CDRH3 D101>G
- Kd (Human OSM [3]): 0.71 nM

B20: Pos 101 Val (antibody, V domains shown)
VH: B1 VH with T99D, D109V
VL: B1 VL
notes: also called CDRH3 D101>V
- Kd (Human OSM [1]): 0.44 nM

B21: Pos 102 Ala (antibody, V domains shown)
VH: B1 VH with T99D, V110A
VL: B1 VL
notes: also called CDRH3 V102>A
- Kd (Human OSM [3]): 0.338 nM

B22: Pos 102 Gln (antibody, V domains shown)
VH: B1 VH with T99D, V110Q
VL: B1 VL
notes: also called CDRH3 V102>Q
- Kd (Human OSM [3]): 0.337 nM

B23: Pos 102 Gly (antibody, V domains shown)
VH: B1 VH with T99D, V110G
VL: B1 VL
notes: also called CDRH3 V102>G
- Kd (Human OSM [3]): 0.406 nM

B24: Pos 102 Leu (antibody, V domains shown)
VH: B1 VH with T99D, V110L
VL: B1 VL
notes: also called CDRH3 V102>L
- Kd (Human OSM [3]): 0.426 nM

B25: Pos 102 Phe (antibody, V domains shown)
VH: B1 VH with T99D, V110F
VL: B1 VL
notes: also called CDRH3 V102>F
- Kd (Human OSM [3]): 0.425 nM

B26: Pos 102 Pro (antibody, V domains shown)
VH: B1 VH with T99D, V110P
VL: B1 VL
notes: also called CDRH3 V102>P
- Kd (Human OSM [3]): 0.411 nM

B27: Pos 102 Ser (antibody, V domains shown)
VH: B1 VH with T99D, V110S
VL: B1 VL
notes: also called CDRH3 V102>S
- Kd (Human OSM [1]): 0.444 nM

B28: Humanised 10G8 H0 + L1 IGKV1_5 (antibody, V domains shown)
VH: B1 VH with S31N, T99D
VL: DIVMTQSPDSLAVSLGERATINCRASKSVSAAGYNFMHWYQQKPGQPPKVLIYKASSLESGVPDRFSGSGSGTDFTLTISSLQAEDVAVYYCLHSREFPFTFGGGTKVEIK
notes: built from the stated exchange of CDRL2; residue limits derived by me; Human gamma 1/kappa constant regions
- Kd (Human OSM [4]): 9.33 nM
- koff (Human OSM [4]): 0.00064 s⁻¹
- kon (Human OSM [4]): 68700 M⁻¹ s⁻¹
- Kd (Cynomolgus OSM): 8.26 nM
- koff (Cynomolgus OSM): 0.000557 s⁻¹
- kon (Cynomolgus OSM): 67500 M⁻¹ s⁻¹

B29: Humanised 10G8 H0 IGHV3_7 + L1 IGKV4_1 (antibody, V domains shown)
VH: B1 VH with A33W, T99D
VL: B28 VL with K54W, S57T, L58R
notes: built from the stated CDR exchanges; residue limits derived by me
- Kd (Human OSM [4]): 44.4 nM
- koff (Human OSM [4]): 0.00163 s⁻¹
- kon (Human OSM [4]): 36800 M⁻¹ s⁻¹
- Kd (Cynomolgus OSM): 34.9 nM
- koff (Cynomolgus OSM): 0.00177 s⁻¹
- kon (Cynomolgus OSM): 50700 M⁻¹ s⁻¹

B30: Humanised 10G8 H0 IGHV3_7 + L1 (antibody, V domains shown)
VH: B1 VH with A33W, T99D
VL: B28 VL with K54Y, S57N
notes: built from the statement that the germline CDRH1 was exchanged for the mouse CDRH1 in H0; Human gamma 1/kappa constant regions
- Kd (Human OSM [4]): 10.6 nM
- koff (Human OSM [4]): 0.000967 s⁻¹
- kon (Human OSM [4]): 91000 M⁻¹ s⁻¹
- Kd (Cynomolgus OSM): 24.2 nM
- koff (Cynomolgus OSM): 0.815 s⁻¹
- kon (Cynomolgus OSM): 3.37e+07 M⁻¹ s⁻¹

B31: Humanised 10G8 H0 IGHV3_23 + L1 IGKV1_5 (antibody, V domains shown)
VH: B1 VH with T99D
VL: B28 VL
notes: built from the stated exchange of CDRL2; residue limits derived by me
- Kd (Human OSM [4]): 9.27 nM
- koff (Human OSM [4]): 0.00066 s⁻¹
- kon (Human OSM [4]): 71100 M⁻¹ s⁻¹
- Kd (Cynomolgus OSM): 8.89 nM
- koff (Cynomolgus OSM): 0.000593 s⁻¹
- kon (Cynomolgus OSM): 66700 M⁻¹ s⁻¹

Reference: patent US20130251724A1 (GlaxoSmithKline, published 2013)
